The text below walks through data of the nanobody polyreactivity screen of Harvey et al. (2022).

The series in a line: yeast display, Sf9 membrane polyspecificity reagent, FACS + sequencing; frameworks hold sequencing errors. An outline of the steps:
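Genes from sorted yeast were amplified by colony PCR, read by MiSeq 2 × 250 sequencing and filtered on CDR length. These cells carried a synthetic nanobody library in Saccharomyces cerevisiae BJ5465 and were sorted by FACS into low and high (top ~1%) gates on anti-HA and streptavidin fluorescence. Polyreactivity is labelled according to the gate of origin.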
Regarding “QLQLVESGGGLVQAGGSLRLSCAASGSTFVVYARGWYRQAPGKERELVAAITRDDGRTYYADSVKGRFTISRDNAKNTVYLQMNSLKPEDTAVYYCAAGYSFGYGYWGQGTQVTVSS”, the “polyreactivity (PSR sort gate)” value is reported as “low polyreactivity”. To “QLQLVESGGGLVQAGGSLRLSCAASGSTFWRYAMGWYRQAPGKERELVAAISWNGGSTYYADSVKGRFTISRDNAKNTVYLQMNSLKPEDTAVYYCAADYWFRYGTYEYWGQGTQGTVSS” belongs “high polyreactivity”. To “QLQLVESGGGLVQAGGSLRLSCAASGYIFEFYAMGWYSQARGKERELVDAIRWNGGTYYADSVKGRFTISRDNAKNTVYLQMNSLKPEDTAVYDCSASRYYRYKIGYVSRAMDYWGQGTQVTVSS” belongs “high polyreactivity”; to “QLQLVESGGGLVQAGGSLRLSCAGSGGTFRVYAMGWYRQATGKERALVAAITGRGGSTYYADSVKGRFTISRDTAKNTVYLQMNSLKAEDTAVYYCAAVSFSDGSPYNYWGLGTQVTVSS”, “low polyreactivity”; to “QLQLVESGGGLVQAGGSLRLSCAYYGFIFYWNAMGWYRHAPGKESQFVATITWSGGSTYYADSVTGRFTISRDNAKNTVYLQMNSLKPEDTAVYSCAVSYLSTLGRSRSDYWGQGTQVTVSS”, “low polyreactivity”. Consider “QLQLVESGGGLVQAGGSLRLSSAASGITLYQYAMGWYRQSPGKERELVAAISSSGGSTYYADSVKGRFTISRDNAKNTVYLQMNSLKPEETAVYYCAAADRFWYGYYQYDYWGQGTQVTVSS”, for which the “polyreactivity (PSR sort gate)” value is on record as “high polyreactivity”. On to “QLQLVESGGGLVQAGGSLSLTFAASGIISNYNAMGWYIQAPGKERELVSAISRSGTRKYYADSVKGRYTISRDNAKNTVYLQMNSLKPEDTAVYDCAAPSWSSKGYCKGYYWGQGTQVTVSS”, for which the “polyreactivity (PSR sort gate)” value is given as “high polyreactivity”. Turning to “QLQLVESGGGLVQAGRRLRLTCAASGSIFQGNVMGWYRQAPGKERELVAAITWSGGRTYYADSVKGRFTISRDHAKNTVYLQMNSMNPDDTAVYYCNAVIGRELDYWGQGTKVTVSS”, the “polyreactivity (PSR sort gate)” value is on record as “high polyreactivity”.

Take “QLQLVESGGGLVQARGSLRLSCAASGYIFGSYAMGWDRQAPGKERELVAANSKSGGSTYYADSVKGRFTISRDYAKNTVYLQMNSLKPEDTAVYYCAAAGIGGGGWGQGTQVTVSS”: the “polyreactivity (PSR sort gate)” value was “low polyreactivity”. Regarding “QLQLVESGGGVVQAGGSLRLSCAATGRIDWNTMGWYRQAPGKERELVASISTGGGRTYYADSVKGRFTISRDNAKNTVYLQMISLKPEDTAVFYCNAVRTVWYRYEYGYWGQGTQVTVSS”, the “polyreactivity (PSR sort gate)” value is “high polyreactivity”. Take “QLQLVESGGRLVQAAVSLRLSFAASGRTFYPYAMGWYRPAPGKERELVAAITSRGASTYYADSVKGRFTISRDNAKNTVYLQMNSLKPEDTAVYYCNSGRTYRRLGDYLGQGTQVTVSS”: the “polyreactivity (PSR sort gate)” value is “high polyreactivity”. In the case of “QLQLVESGGVLVQAGGSLRLSCAASGSTFRYNAMGWYRQAPGKERELVASITWSGGDTYYADSVKGRFTISRDNAKNTVYLQMNSLKPEDTAVYYCAKKGYASRYFIYDYWGQGTQVTVSS”, the “polyreactivity (PSR sort gate)” value is “low polyreactivity”.

As for “QLQLVESRRGLVHAGGSLRLSSDASGRIFLYYAMGWYRQAPVKERELVARITSSGSTYYADSVKGLFTISRDNAKNTVYLQMNSLKPEDTAVYYCAADWYWGGIVDSWGQGTQVTVSS”, the “polyreactivity (PSR sort gate)” value was “high polyreactivity”.

As to “QLQLVESVGGLVQAGGSLRLSCAASGGIFNVNALGWYRQAPGKERELVAAISLSGSNTYYADSVKGRFTISRDNAKNTVYLQMNSLKPEDTAVYYCNADYVYRRYGYWGQGTQVTVSS”, the “polyreactivity (PSR sort gate)” value was “high polyreactivity”. “QLQLVETGGGLVQAGGSLRLSCAASGSIIAKNAKGWYSQAPGTDRELVAAISKSGGITYYADSVKGRFSISRDNAKNTVYLQINSLKPEDTAVYYCNALSAGYIGVASRYYYWGQGTQVTVSS”: the “polyreactivity (PSR sort gate)” value is “high polyreactivity”. To “QLQLVQSGGGLVQAGGSLRLSCASSGRTFTPNARGWYSQAPGKEREMVAAISWRGGSTYYADAVMGRFTISRVNGKYTVYLEMKSLKPEDTGVYYCKKRSDKSYTRTEYDNWRQGTQVTVSS” belongs “high polyreactivity”. For “QVEHVDSGGGLVQAGGSLRLSCAASGRTIWDYMGWYRQAPGKEREVVATITSSGGSTYYADSVKGRFTISRDNAKNTVYLQMNSLKPEDTAVYYCNADWYLWSTFAQGYGYWGQGTQVTVSS”, the “polyreactivity (PSR sort gate)” value is reported as “high polyreactivity”.

Take “QVEHVESGGGLVQAGGSLRLSCAASGGTFSHNDMGWYRQAPGKERELVPSINSGGSTNYADSVKGRFTISRDNAKNTVDLQMNSLKPEDNAVYYCAADVEGWTVESDVYRVGYDYWGQCTQVTVSS”: the “polyreactivity (PSR sort gate)” value is on record as “low polyreactivity”. To “QVEHVESGGGLVQAGGSLRLSCAASGSIIVDNAMGWSRQAPGKDRELVAAISVGGGRTYYADSVKGRFTISRDNAKNTVYLQMNSLKPEDTAVYYCNRVPTRGPHGVWFGYCGQGTQVTVSS” belongs “high polyreactivity”; to “QVELEESGGGLVQAGGSLRLSCAASGFIFRYYALGWYRPGPGTVRELVAVISSSGSTHYADSVKGRITISRDNAKNTVYLQMNSLKPEDTAVYYCAADGNVWSGPRYDYWGQGTQLTVSS”, “low polyreactivity”. As for “QVELQVSGGGLVRAGGSLRLSCAASGNIFDADIMGWYRQAPGKERELVASITGGGSTSYAESAKGRFTISRDNAKNAVYLQMNRLKPEDTAVYYCAAAAYYADFDYWGQGTQVTVSS”, the “polyreactivity (PSR sort gate)” value is “low polyreactivity”.

Regarding “QVELVESGGGLGQAGGSLRLSCAASGLIFVLNDMGWYRLAPGKVRELVAAISYSGSSTYADSVKGRFTISRDNAKNTVYLQMNSLKPEDTAVYYCARGSKVRTRGVGYWGQGTQVTVSS”, the “polyreactivity (PSR sort gate)” value is “low polyreactivity”. To “QVELVESGGGLVQAGGSLRLSCAASGFTFGYNAMGWYRQAPGKERELVAAIRLSGSSTYYADSVKGRFTISRDNAKNTVYLQMNSLNPEDTAVYYCAADGISHWLYRYDYWGQGTQVTVSS” belongs “low polyreactivity”. “QVELVESGGGLVQAGGSLRLSCAASGFTFQEYAMGWYRQAPGQETELVAAISTSGDYTYYADSVKGRFTISRDNAKHTVYFQMNSLKPEDTAVYYCATGVDTYSLTVEHDSWGQGTQLTVSS”: the “polyreactivity (PSR sort gate)” value is given as “low polyreactivity”. With “QVELVESGGGLVQAGGSLRLSCAASGSTFDYNAMGWYRQAPGKERELVAAISRTANANYADSVKGRFTISRDNAKNTVYLQMNSLKPEDTSVYYCAADFRASKVHVRFCYWGQGTQVTVSS”, the “polyreactivity (PSR sort gate)” value is given as “low polyreactivity”. To “QVELVESGGGLVQAGGSLRLSCAGSGIIFPYYVMGWYRQAPGKARELVAAINSGGRTYYADSVKGRFTISRDNAKNSVYLQMNSLNREDTAVYYCAATQSTNRMDHWGQGTQVTVSS” belongs “low polyreactivity”.

Turning to “QVELVESGGGLVQAGGSLRLSCSASGSIFYKYAMGWYRQAPGKERELVAAIRVSGGSTYYADSVKGRFTISRDNAKNTVYLQMNSLKPEDTAVYYCAAESKFPWGYRYDYWGQGTQVTVSS”, the “polyreactivity (PSR sort gate)” value is “low polyreactivity”.

Regarding “QVELVESGGGLVQPGGSLRLSCAASGRTLSRYTMGWYRQAPGKERELVAAISTSGSTYYADSVKGRFTISRDNAKNTVYLQMNSLKPEDTAVYYCAADRFGIGGIRGNDYWGQGTQVTVSS”, the “polyreactivity (PSR sort gate)” value is listed as “high polyreactivity”. With “QVELVVSGGGLVQPGGSLRLSCAASGSTFFNNGMGWYRQSPGKERELVATITKRGGNTYYADSVKGRFTISRDNAKNTVYLQMNSLKPEDTAVYYCAALRYKLPLGYWGQGTQVTVSS” the entry was “high polyreactivity”.

With “QVHHVESCGGLVQAGGSLRLSCAASGRTFVYYAMGWYRQAPGKEREFVAAISRSGGRTSYAYSVKGRFTISRDNPKNTVYLPMNSLKPEDTAVYYCGAEKRTQPTSREYYWGQGTQVTVSS”, the “polyreactivity (PSR sort gate)” value is reported as “high polyreactivity”. As to “QVHHVESGGGLVQAGGSLRLSCAASGRIFSYYAMGRYRPAPGKERELVAAITSRGTRTYYADSVKGRFTISRDNAKNTVYLQMNSLKPDDTAVYYCNVVSDIRLYFRFAYDYWGQGTQVTVSS”, the “polyreactivity (PSR sort gate)” value is listed as “high polyreactivity”. With “QVHHVESGGGLVQAGGSLRLSCAASGRTFRYKAMGWYRQAPGKETELVARISRTGGRTYYADSVKGRFTISRDNAKTTVYLQMNSLKPEDTAVYYCNARKRYYSTRYNYWGQGTQVTVSS” the entry was “high polyreactivity”. For “QVHHVESGGGLVQAGGSLRLSCAASGSIFWTYAMGWYRQAPGKERELVAAITSGSSTKYADSVKGRFTISRDNAKNTVYLQMYSLKPEDTAVYYCNARSYRGYRGVFLYSGLLGSDYWGQGTQVTVSS”, the “polyreactivity (PSR sort gate)” value is recorded as “low polyreactivity”. To “QVHHVESGGGLVQARGSLRLSCAASGFIFSSYTMGWYRQAPGKERELLAAITSRGGSTYYADSVKGRVTISRDTAKNTVYLQMNSLKAEDTAVYYCNARRIPYSPYGVHEGNYWGQGTQVTVSS” belongs “high polyreactivity”. With “QVHIVESGAGLVQAGGSLRLSCAASGSIFRYNAMGWYRQAPGKEREFVAAITYSGGSTYYADSVTGRFTISRDNAKNTLFLQMNSLKPEDTAVYYCAAGYCSRGSRDGYWGQGTQVSVSS” the entry was “low polyreactivity”; with “QVHIVESGGGLVQAGGSLRLSCAASGSNFTLYTMGWYRQAPGKERELVAAISTSGGRTYYADSVKGRFTISRDNAKNTVYLQMNSLKPEDTAVYYCNAGYWYYGQDDYWGQGTQVTVSS”, “high polyreactivity”.

Regarding “QVHIVETGGGLFQAGGSLRLSSASSGRIFPVYAMGWYRQAPGKERELVAAISRRGGSSYYEDSVKGRFTISRDNAKNTVYLHMNCLKTEDTEVNYFAATAYYYWWWYGGDMDYWGQGTQVSVSS”, the “polyreactivity (PSR sort gate)” value is given as “high polyreactivity”. With “QVHLAESAAGLDQAGGRLRLSCAAYGIIFYYYAMGWYRQAPGKERELVAAISGTGGRTYYADSVKGRFTISRDNAKNTVYLQMNSLKPEDTAVYYCNADDTPVPSIRFDSWGQGTQVTVSS” the entry was “low polyreactivity”; with “QVHLEESGRRLVQAGGSLRLSCAASGSIFSYYAMGWSRPAPGKEWELVAAISQSGGSTYYADSVKGRFTISGDNAKNTVDLQMNSLKPEDTAVYSCNAVARHTRAKYGSWGQGTQVTVSS”, “low polyreactivity”. As to “QVHLEESWGGLVQAGGSLSISCAASGSIFRPNAMGWYRPAPGKERELVAAINKIGGRTYYADSVKGRFTISRDNAKNTVYLQMNSLKPEDTAVYYCNAGGGYHYWGQGTQVTVSS”, the “polyreactivity (PSR sort gate)” value is recorded as “high polyreactivity”. For “QVHLGESGGGLVQAGGSLRLSCAASGSIFYGYAMGWYRHAPGKERELVAAITRDGSTNYADSVKGRFTISRDNAKNTVYLQMNSLKPEDTAVYYCAADTRSRRLSLVRRDYWGQGTQVTVSS”, the “polyreactivity (PSR sort gate)” value is “high polyreactivity”.
